{"source": "patent US20210002656", "target": "T1, I-SceI (UniProt P03882)", "T1 sequence": "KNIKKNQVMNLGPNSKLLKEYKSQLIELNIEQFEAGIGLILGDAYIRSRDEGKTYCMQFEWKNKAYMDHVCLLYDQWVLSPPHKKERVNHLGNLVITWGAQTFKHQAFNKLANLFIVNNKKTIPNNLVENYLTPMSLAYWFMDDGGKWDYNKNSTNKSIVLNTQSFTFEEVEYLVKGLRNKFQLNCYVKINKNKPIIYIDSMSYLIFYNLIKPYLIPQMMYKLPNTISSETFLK", "assay": "cell_activity", "conditions": "protein delivered to N. tabacum protoplasts, SSA assay; 0.49% when delivered as DNA; 2.4% sequential delivery"}
{"substance": "I-SceI site in YFP SSA plasmid", "values": [{"measurement": "activity", "result": 4.4, "unit": "% YFP"}]}
